Experimental data taken from publication PMC4265154, “A reversible Renilla luciferase protein complementation assay for rapid identification of protein–protein interactions reveals the existence of an interaction network involved in xyloglucan biosynthesis in the plant Golgi apparatus” (Journal of Experimental Botany, 2014).

B1: ARABINAN DEFICIENT1 (ARAD1) fused to hRluc fragment [F1] or [F2] (natural protein, Arabidopsis thaliana, UniProt Q6DBG8 1-447, looked up)
chain: MARKSSLLKRAAIAVVSVIAIYVILNASVSRSLPSSSDLPRQLIREDDDDEGRAPIQPRVRVYMYNLPKRFTYGLIEQHSIARGGIKKPVGDVTTLKYPGHQHMHEWYLFSDLNQPEVDRSGSPIVRVSDPADADLFYVPVFSSLSLIVNAGRPVEAGSGYSDEKMQEGLVEWLEGQEWWRRNAGRDHVIPAGDPNALYRILDRVKNAVLLVSDFGRLRPDQGSFVKDVVIPYSHRVNLFNGEIGVEDRNTLLFFMGNRYRKDGGKVRDLLFQVLEKEDDVTIKHGTQSRENRRAATKGMHTSKFCLNPAGDTPSACRLFDSIVSLCVPLIVSDSIELPFEDVIDYRKFSIFVEANAALQPGFLVQMLRKIKTKKILEYQREMKSVRRYFDYDNPNGAVKEIWRQVSHKLPLIKLMSNRDRRLVLRNLTEPNCSCLCTNQTGLITSI
notes: Made in two forms, one with [F1]-HA and one with [F2]-FLAG; a chain carries one of the two; also called ARAD1-[F1]; ARAD1-[F2]; source: N. benthamiana leaves, transient expression (A. tumefaciens GV3101, with p19), in crude leaf macerate; not shown: hRluc[F1]; (Renilla luciferase residues 1-110) with HA, C-terminal, kept; hRluc[F2]; (Renilla luciferase residues 111-310) with FLAG, C-terminal, kept
B2: GALACTURONOSYLTRANSFERASE1 (GAUT1) fused to hRluc fragment [F1] or [F2] (natural protein, Arabidopsis thaliana, UniProt Q9LE59 1-673, looked up)
chain: MALKRGLSGVNRIRGSGGGSRSVLVLLIFFCVFAPLCFFVGRGVYIDSSNDYSIVSVKQNLDWRERLAMQSVRSLFSKEILDVIATSTADLGPLSLDSFKKNNLSASWRGTGVDPSFRHSENPATPDVKSNNLNEKRDSISKDSIHQKVETPTKIHRRQLREKRREMRANELVQHNDDTILKLENAAIERSKSVDSAVLGKYSIWRRENENDNSDSNIRLMRDQVIMARVYSGIAKLKNKNDLLQELQARLKDSQRVLGEATSDADLPRSAHEKLRAMGQVLAKAKMQLYDCKLVTGKLRAMLQTADEQVRSLKKQSTFLAQLAAKTIPNPIHCLSMRLTIDYYLLSPEKRKFPRSENLENPNLYHYALFSDNVLAASVVVNSTIMNAKDPSKHVFHLVTDKLNFGAMNMWFLLNPPGKATIHVENVDEFKWLNSSYCPVLRQLESAAMREYYFKADHPTSGSSNLKYRNPKYLSMLNHLRFYLPEVYPKLNKILFLDDDIIVQKDLTPLWEVNLNGKVNGAVETCGESFHRFDKYLNFSNPHIARNFNPNACGWAYGMNMFDLKEWKKRDITGIYHKWQNMNENRTLWKLGTLPPGLITFYGLTHPLNKAWHVLGLGYNPSIDKKDIENAAVVHYNGNMKPWLELAMSKYRPYWTKYIKFDHPYLRRCNLHE
notes: Made in two forms, one with [F1]-HA and one with [F2]-FLAG; a chain carries one of the two; also called GAUT1-[F1]; GAUT1-[F2]; source: N. benthamiana leaves, transient expression (A. tumefaciens GV3101, with p19), in crude leaf macerate; not shown: hRluc[F1]; (Renilla luciferase residues 1-110) with HA, C-terminal, kept; hRluc[F2]; (Renilla luciferase residues 111-310) with FLAG, C-terminal, kept
B3: MURUS3/KATAMARI1 (MUR3) fused to hRluc fragment [F1] or [F2] (natural protein, Arabidopsis thaliana, UniProt Q7XJ98 1-619, looked up)
chain: MFPRVSMRRRSAEVSPTEPMEKGNGKNQTNRICLLVALSLFFWALLLYFHFVVLGTSNIDKQLQLQPSYAQSQPSSVSLRVDKFPIEPHAAPSKPPPKEPLVTIDKPILPPAPVANSSSTFKPPRIVESGKKQEFSFIRALKTVDNKSDPCGGKYIYVHNLPSKFNEDMLRDCKKLSLWTNMCKFTTNAGLGPPLENVEGVFSDEGWYATNQFAVDVIFSNRMKQYKCLTNDSSLAAAIFVPFYAGFDIARYLWGYNISRRDAASLELVDWLMKRPEWDIMRGKDHFLVAGRITWDFRRLSEEETDWGNKLLFLPAAKNMSMLVVESSPWNANDFGIPYPTYFHPAKDSEVFEWQDRMRNLERKWLFSFAGAPRPDNPKSIRGQIIDQCRNSNVGKLLECDFGESKCHAPSSIMQMFQSSLFCLQPQGDSYTRRSAFDSMLAGCIPVFFHPGSAYTQYTWHLPKNYTTYSVFIPEDDVRKRNISIEERLLQIPAKQVKIMRENVINLIPRLIYADPRSELETQKDAFDVSVQAVIDKVTRLRKNMIEGRTEYDYFVEENSWKYALLEEGQREAGGHVWDPFFSKPKPGEDGSSDGNGGTTISADAAKNSWKSEQRDKTQ
notes: Made in two forms, one with [F1]-HA and one with [F2]-FLAG; a chain carries one of the two; also called MUR3-[F1]; MUR3-[F2]; source: N. benthamiana leaves, transient expression (A. tumefaciens GV3101, with p19), in crude leaf macerate; not shown: hRluc[F1]; (Renilla luciferase residues 1-110) with HA, C-terminal, kept; hRluc[F2]; (Renilla luciferase residues 111-310) with FLAG, C-terminal, kept
B4: GALACTURONOSYLTRANSFERASE7 (GAUT7) fused to hRluc fragment [F1] or [F2] (natural protein, Arabidopsis thaliana, UniProt Q9ZVI7 1-619, looked up)
chain: MKGGGGGGGGGGGGKRRWKVLVIGVLVLVILSMLVPLAFLLGLHNGFHSPGFVTVQPASSFESFTRINATKHTQRDVSERVDEVLQKINPVLPKKSDINVGSRDVNATSGTDSKKRGLPVSPTVVANPSPANKTKSEASYTGVQRKIVSGDETWRTCEVKYGSYCLWREENKEPMKDAKVKQMKDQLFVARAYYPSIAKMPSQSKLTRDMKQNIQEFERILSESSQDADLPPQVDKKLQKMEAVIAKAKSFPVDCNNVDKKLRQILDLTEDEASFHMKQSVFLYQLAVQTMPKSLHCLSMRLTVEHFKSDSLEDPISEKFSDPSLLHFVIISDNILASSVVINSTVVHARDSKNFVFHVLTDEQNYFAMKQWFIRNPCKQSTVQVLNIEKLELDDSDMKLSLSAEFRVSFPSGDLLASQQNRTHYLSLFSQSHYLLPKLFDKLEKVVILDDDVVVQRDLSPLWDLDMEGKVNGAVKSCTVRLGQLRSLKRGNFDTNACLWMSGLNVVDLARWRALGVSETYQKYYKEMSSGDESSEAIALQASLLTFQDQVYALDDKWALSGLGYDYYINAQAIKNAAILHYNGNMKPWLELGIPNYKNYWRRHLSREDRFLSDCNVNP
notes: Made in two forms, one with [F1]-HA and one with [F2]-FLAG; a chain carries one of the two; also called GAUT7-[F1]; GAUT7-[F2]; source: N. benthamiana leaves, transient expression (A. tumefaciens GV3101, with p19), in crude leaf macerate; not shown: hRluc[F1]; (Renilla luciferase residues 1-110) with HA, C-terminal, kept; hRluc[F2]; (Renilla luciferase residues 111-310) with FLAG, C-terminal, kept

Key:
Assay in all cases: split reporter (BiFC, NanoBiT); Rluc-PCA: proteins with C-terminal hRluc[F1]-HA and hRluc[F2]-FLAG co-expressed with p19 in N. benthamiana leaves for 72 h (Agrobacterium OD600 0.2 each, p19 0.05); pooled leaf discs macerated in 0.5 M NaCl, 0.1 M potassium phosphate pH 7.4, 1 mM EDTA, 0.02% BSA, protease inhibitors; 10 uM coelenterazine-h, luminescence 30 s; compared with p19 alone
[1] = biological target: FUCO…1 (FUT1) fused to hRluc fragment [F1] or [F2] (Arabidopsis thaliana) (UniProt Q9SWH5)
[2] = biological target: the molecule itself
[3] = biological target: B4; settings: partners not purified
[4] = biological target: B2; settings: partners not purified

FUCO…1 (FUT1) fused to hRluc fragment [F1] or [F2] (Arabidopsis thaliana), sequence (Q9SWH5 whole entry, the tested form may be a part): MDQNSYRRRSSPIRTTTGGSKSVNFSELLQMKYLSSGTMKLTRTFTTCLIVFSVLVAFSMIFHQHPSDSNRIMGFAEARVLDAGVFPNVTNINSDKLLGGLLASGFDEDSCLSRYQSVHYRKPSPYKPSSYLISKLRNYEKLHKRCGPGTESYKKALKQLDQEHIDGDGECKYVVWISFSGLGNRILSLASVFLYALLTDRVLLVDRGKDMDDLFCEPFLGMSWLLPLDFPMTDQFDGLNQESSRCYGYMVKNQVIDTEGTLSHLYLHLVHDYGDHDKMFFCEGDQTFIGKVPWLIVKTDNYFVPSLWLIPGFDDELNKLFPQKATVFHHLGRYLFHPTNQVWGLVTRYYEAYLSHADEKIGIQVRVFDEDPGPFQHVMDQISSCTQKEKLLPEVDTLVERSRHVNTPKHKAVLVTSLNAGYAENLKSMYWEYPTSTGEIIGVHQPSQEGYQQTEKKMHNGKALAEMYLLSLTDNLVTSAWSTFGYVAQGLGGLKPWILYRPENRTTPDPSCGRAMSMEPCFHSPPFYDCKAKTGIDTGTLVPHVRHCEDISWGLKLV

XXT5 fused to hRluc fragment [F1] or [F2] (from UniProt Q9CA75 1-457) (natural protein)
Log10(RLU) [1]: 3.76 Log10(RLU)

B1
Log10(RLU) [2]: 4.75 Log10(RLU)

B2
Log10(RLU) [3]: 4.71 Log10(RLU)

B3
Log10(RLU) [2]: 4.75 Log10(RLU)

B4
Log10(RLU) [4]: 4.71 Log10(RLU)
